B1: bacteriophage T7 gp15 core protein (natural protein, UniProt P03725 1-747, looked up)
chain: MSKIESALQAAQPGLSRLRGGAGGMGYRAATTQAEQPRSSLLDTIGRFAKAGADMYTAKEQRARDLADERSNEIIRKLTPEQRREALNNGTLLYQDDPYAMEALRVKTGRNAAYLVDDDVMQKIKEGVFRTREEMEEYRHSRLQEGAKVYAEQFGIDPEDVDYQRGFNGDITERNISLYGAHDNFLSQQAQKGAIMNSRVELNGVLQDPDMLRRPDSADFFEKYIDNGLVTGAIPSDAQATQLISQAFSDASSRAGGADFLMRVGDKKVTLNGATTTYRELIGEEQWNALMVTAQRSQFETDAKLNEQYRLKINSALNQEDPRTAWEMLQGIKAELDKVQPDEQMTPQREWLISAQEQVQNQMNAWTKAQAKALDDSMKSMNKLDVIDKQFQKRINGEWVSTDFKDMPVNENTGEFKHSDMVNYANKKLAEIDSMDIPDGAKDAMKLKYLQADSKDGAFRTAIGTMVTDAGQEWSAAVINGKLPERTPAMDALRRIRNADPQLIAALYPDQAELFLTMDMMDKQGIDPQVILDADRLTVKRSKEQRFEDDKAFESALNASKAPEIARMPASLRESARKIYDSVKYRSGNESMAMEQMTKFLKESTYTFTGDDVDGDTVGVIPKNMMQVNSDPKSWEQGRDILEEARKGIIASNPWITNKQLTMYSQGDSIYLMDTTGQVRVRYDKELLSKVWSENQKKLEEKAREKALADVNKRAPIVAATKAREAAAKRVREKRKQTPKFIYGRKE
B2: bacteriophage T7 gp16 core protein (natural protein, UniProt P03726 1-1318, looked up)
chain: MDKYDKNVPSDYDGLFQKAADANGVSYDLLRKVAWTESRFVPTAKSKTGPLGMMQFTKATAKALGLRVTDGPDDDRLNPELAINAAAKQLAGLVGKFDGDELKAALAYNQGEGRLGNPQLEAYSKGDFASISEEGRNYMRNLLDVAKSPMAGQLETFGGITPKGKGIPAEVGLAGIGHKQKVTQELPESTSFDVKGIEQEATAKPFAKDFWETHGETLDEYNSRSTFFGFKNAAEAELSNSVAGMAFRAGRLDNGFDVFKDTITPTRWNSHIWTPEELEKIRTEVKNPAYINVVTGGSPENLDDLIKLANENFENDSRAAEAGLGAKLSAGIIGAGVDPLSYVPMVGVTGKGFKLINKALVVGAESAALNVASEGLRTSVAGGDADYAGAALGGFVFGAGMSAISDAVAAGLKRSKPEAEFDNEFIGPMMRLEARETARNANSADLSRMNTENMKFEGEHNGVPYEDLPTERGAVVLHDGSVLSASNPINPKTLKEFSEVDPEKAARGIKLAGFTEIGLKTLGSDDADIRRVAIDLVRSPTGMQSGASGKFGATASDIHERLHGTDQRTYNDLYKAMSDAMKDPEFSTGGAKMSREETRYTIYRRAALAIERPELQKALTPSERIVMDIIKRHFDTKRELMENPAIFGNTKAVSIFPESRHKGTYVPHVYDRHAKALMIQRYGAEGLQEGIARSWMNSYVSRPEVKARVDEMLKELHGVKEVTPEMVEKYAMDKAYGISHSDQFTNSSIIEENIEGLVGIENNSFLEARNLFDSDLSITMPDGQQFSVNDLRDFDMFRIMPAYDRRVNGDIAIMGSTGKTTKELKDEILALKAKAEGDGKKTGEVHALMDTVKILTGRARRNQDTVWETSLRAINDLGFFAKNAYMGAQNITEIAGMIVTGNVRALGHGIPILRDTLYKSKPVSAKELKELHASLFGKEVDQLIRPKRADIVQRLREATDTGPAVANIVGTLKYSTQELAARSPWTKLLNGTTNYLLDAARQGMLGDVISATLTGKTTRWEKEGFLRGASVTPEQMAGIKSLIKEHMVRGEDGKFTVKDKQAFSMDPRAMDLWRLADKVADEAMLRPHKVSLQDSHAFGALGKMVMQFKSFTIKSLNSKFLRTFYDGYKNNRAIDAALSIITSMGLAGGFYAMAAHVKAYALPKEKRKEYLERALDPTMIAHAALSRSSQLGAPLAMVDLVGGVLGFESSKMARSTILPKDTVKERDPNKPYTSREVMGAMGSNLLEQMPSAGFVANVGATLMNAAGVVNSPNKATEQDFMTGLMNSTKELVPNDPLTQQLVLKIYEANGVNLRERRK

Legend:
[1] = biological target: the molecule itself; test: AUC + other: dynamic light scattering
[2] = biological target: B1; test: AUC

Binder	stoichiometry N [1]	stoichiometry N [2]
B1	6	
B2		6 gp16 monomers per gp15 hexamer
